Data taken from patent US20120328616A1 (Amgen, published 2012).

Tests used:
human FGFR1c = biological target: T1, human FGFR1c (human, UniProt P11362 22-822); assay: flow cytometry, transfected HEK293T
T1 construct: Full length (GenBank NP-075598), expressed on transfected 293T cells; also called huFGFR1c; FGFR1c alone

murine β-Klotho = biological target: T2, murine β-Klotho (murine, UniProt Q99N32 1-1043); assay: flow cytometry, transfected HEK-293T
T2 construct: Full length (GenBank NP-112457), transiently expressed on HEK-293T cells; also called mu β-klotho; mouse β-Klotho
T2 sequence: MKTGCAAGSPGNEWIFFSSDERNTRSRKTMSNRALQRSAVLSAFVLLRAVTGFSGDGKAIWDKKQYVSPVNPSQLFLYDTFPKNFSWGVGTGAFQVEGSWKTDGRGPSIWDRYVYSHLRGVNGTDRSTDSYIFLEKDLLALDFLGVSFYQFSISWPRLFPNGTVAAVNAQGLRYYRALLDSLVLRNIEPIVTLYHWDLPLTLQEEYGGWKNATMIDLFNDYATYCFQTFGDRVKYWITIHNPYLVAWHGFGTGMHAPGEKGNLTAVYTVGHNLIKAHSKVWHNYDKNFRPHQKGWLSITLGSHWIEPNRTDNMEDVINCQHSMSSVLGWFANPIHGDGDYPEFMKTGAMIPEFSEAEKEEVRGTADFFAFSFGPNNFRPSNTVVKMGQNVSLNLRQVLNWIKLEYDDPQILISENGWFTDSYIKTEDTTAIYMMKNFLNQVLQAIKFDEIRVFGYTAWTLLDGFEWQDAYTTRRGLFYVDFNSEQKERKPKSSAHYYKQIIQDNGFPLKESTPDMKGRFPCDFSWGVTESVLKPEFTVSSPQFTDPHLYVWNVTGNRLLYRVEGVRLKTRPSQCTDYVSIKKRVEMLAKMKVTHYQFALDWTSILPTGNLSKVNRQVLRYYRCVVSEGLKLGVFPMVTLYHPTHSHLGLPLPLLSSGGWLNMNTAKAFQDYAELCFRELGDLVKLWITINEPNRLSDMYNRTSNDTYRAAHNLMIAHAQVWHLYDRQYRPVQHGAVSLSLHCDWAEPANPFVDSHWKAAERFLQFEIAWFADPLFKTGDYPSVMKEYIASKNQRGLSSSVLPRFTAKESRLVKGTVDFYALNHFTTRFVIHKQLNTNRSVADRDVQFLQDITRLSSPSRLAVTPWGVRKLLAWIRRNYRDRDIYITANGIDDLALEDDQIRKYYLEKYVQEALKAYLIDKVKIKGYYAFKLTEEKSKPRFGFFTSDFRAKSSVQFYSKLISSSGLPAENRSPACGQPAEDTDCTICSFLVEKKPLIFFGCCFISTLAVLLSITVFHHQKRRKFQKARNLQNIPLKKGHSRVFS

[1] = biological target: T3, huBeta_Klotho (1-633, 852-1044) (muBeta KLOTHO 632G-849Q) (human; murine, UniProt Q86Z14 1-1044); assay: flow cytometry, transfected HEK-293T
T3 construct: also called Chimera 10; Construct 10

[2] = biological target: T4, huBeta_Klotho (1-301, 509-743, 967-1044) (muBeta KLOTHO 302-506, 742-964) (human; murine, UniProt Q86Z14 1-1044); assay: flow cytometry, transfected HEK-293T
T4 construct: also called Chimera 14; Construct 14
T4 chain: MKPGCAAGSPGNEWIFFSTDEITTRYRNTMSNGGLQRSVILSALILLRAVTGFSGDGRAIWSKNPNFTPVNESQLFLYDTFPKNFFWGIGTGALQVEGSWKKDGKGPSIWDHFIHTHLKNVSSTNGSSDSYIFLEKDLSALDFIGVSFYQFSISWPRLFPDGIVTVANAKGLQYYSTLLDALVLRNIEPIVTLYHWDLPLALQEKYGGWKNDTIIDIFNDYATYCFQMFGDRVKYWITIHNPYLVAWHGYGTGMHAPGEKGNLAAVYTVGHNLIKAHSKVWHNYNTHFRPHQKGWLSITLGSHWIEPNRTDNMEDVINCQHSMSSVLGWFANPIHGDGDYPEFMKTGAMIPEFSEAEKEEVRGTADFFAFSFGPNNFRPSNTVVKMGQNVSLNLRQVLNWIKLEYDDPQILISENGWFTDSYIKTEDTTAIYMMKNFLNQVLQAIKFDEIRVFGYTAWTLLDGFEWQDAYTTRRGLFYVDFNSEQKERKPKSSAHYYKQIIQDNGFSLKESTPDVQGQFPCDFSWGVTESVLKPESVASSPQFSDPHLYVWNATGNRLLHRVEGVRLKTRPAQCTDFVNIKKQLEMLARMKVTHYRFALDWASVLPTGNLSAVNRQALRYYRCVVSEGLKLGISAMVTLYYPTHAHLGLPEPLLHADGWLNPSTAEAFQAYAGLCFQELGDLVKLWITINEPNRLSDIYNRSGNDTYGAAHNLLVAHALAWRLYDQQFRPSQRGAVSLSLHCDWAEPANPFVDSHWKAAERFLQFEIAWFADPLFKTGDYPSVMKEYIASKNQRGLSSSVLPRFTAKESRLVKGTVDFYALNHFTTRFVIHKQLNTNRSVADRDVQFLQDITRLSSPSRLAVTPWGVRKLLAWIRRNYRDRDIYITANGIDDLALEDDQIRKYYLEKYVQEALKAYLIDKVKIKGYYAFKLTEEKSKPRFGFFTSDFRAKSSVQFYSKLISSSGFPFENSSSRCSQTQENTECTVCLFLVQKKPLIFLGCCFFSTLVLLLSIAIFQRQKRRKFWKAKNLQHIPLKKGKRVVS

[3] = biological target: T5, huBeta_Klotho (1-507) (muBetaKLOTHO 506F-1045S) (human; murine, UniProt Q99N32 1-1043); assay: flow cytometry, transfected HEK-293T
T5 construct: also called Chimera 2; Construct 2

[4] = biological target: T6, huBeta_Klotho (1-736, 967-1044) (muBeta KLOTHO 735A-963S) (human; murine, UniProt Q86Z14 1-1044); assay: flow cytometry, transfected HEK-293T
T6 construct: also called Chimera 11; Construct 11

binding result (human FGFR1c): no binding
binding result (murine β-Klotho): no binding
binding result [1]: binds
binding result [2]: no binding
binding result [3]: binds
binding result [4]: binds
B1: 54A1.1 (antibody, V domains shown)
VH: QVQLVQSGAEVKKPGASVKVSCKASGYTFTSYDINWVRQATGQGLEWMGWMNPHSGNTGYAQKFQGRVTMTRNTSINTAYMELSSLRSEDTAVYYCAKYNWNYGAFDFWGQGTMVTVSS
VL: DIQMAQSPSSLSASVGDRVTITCQASQDISIYLNWYQLKPGKAPKLLIYDVSNLETGVPSRFSGGGSGTDFTFTISSLQPEDIATYYCQQYDNLPLTFGPGTKVDIKR
